Data published in publication PMC4530576.
Read-outs that look alike come from different tables or passages of the source.

T1: Spen RRM domains (Spen RRMs) (UniProt Q96T58 335-620)
T1 sequence: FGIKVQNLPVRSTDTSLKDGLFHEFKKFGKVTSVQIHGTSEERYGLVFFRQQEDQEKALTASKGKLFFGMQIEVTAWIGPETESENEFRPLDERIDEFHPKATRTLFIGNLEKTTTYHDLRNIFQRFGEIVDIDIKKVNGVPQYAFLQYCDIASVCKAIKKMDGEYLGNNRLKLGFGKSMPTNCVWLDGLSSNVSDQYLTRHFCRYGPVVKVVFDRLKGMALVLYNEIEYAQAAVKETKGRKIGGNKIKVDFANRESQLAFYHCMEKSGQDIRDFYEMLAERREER


How the values were obtained:
[1] = target: T1, Spen RRM domains (Spen RRMs); assay: EMSA
[2] = target: T1, Spen RRM domains (Spen RRMs); assay: EMSA; remark: listed apart in the source

Row | Binder | binding result [1] | binding result [2]
1 | H12-H13 SRA, synthetic (structured_RNA) RNA: GCAGGUAUGUGAUGACAUCAGCCGACGCCUGGCACUGCUGCAGGAACAGUGGGCUGGAGGAAAGUUGUCAAUACCUGU | binds | 
2 | XCR-XC dimer (Xist A-repeat dimer), synthetic (structured_RNA) RNA: UUGCCCAUCGGGGCCUCGGAUACCUGCUUUAAAUUGCCCAUCGGGGCCUCGGAUACCUGCUUUAC |  | binds
